Experimental data reported in patent publication US20190142971A1, “FORMULATION AND DELIVERY OF MODIFIED NUCLEOSIDE, NUCLEOTIDE, AND NUCLEIC ACID COMPOSITIONS” (ModernaTX, Inc., priority 2013, published 2019).

Test system: non-human primates (cynomolgus monkey)
Test: Example 22: NHP hematology: neutrophils, reticulocytes, HGB, HCT, RBC (Tables 40-44)
Format: in vivo
Experimental: LNP formulations, shown in Table 33 (above), were administered to non-human primates (NHP) (cynomolgus monkey) (n=2) as intravenous injection (IV). The NHP were administered a single modified mRNA IV dose of 0.5 mg/kg, 0.05 mg/kg or 0.005 mg/kg of G-CSF or EPO in a dose volume of 0.5 mL/kg. The NHPs were bled before dosing with the modified mRNA LNP formulations to determine protein expression in the serum and a baseline complete blood count. After administration with the G-CSF modified mRNA formulation the NHP were bled at 8, 24, 48 and 72 hours to determined protein expression. After administration with the EPO modified mRNA formulation the NHP were bled at 8, 24, 48, 72 hours and 7 days to determined protein expression.
Samples collected from the NHPs after they were administered with G-CSF or EPO modified mRNA formulations were analyzed by ELISA to determine protein expression. Neutrophil and reticulocyte count was also determined pre-dose, 24 hours, 3 days, 7 days, 14 days and 18 days after administration of the modified G-CSF or EPO formulation.

[1] = 0.05 mg/kg, 14/18 days, Female NHP
[2] = 0.05 mg/kg, 14/18 days, Male NHP
[3] = 0.05 mg/kg, 24 hours, Female NHP
[4] = 0.05 mg/kg, Pre-dose, Female NHP
[5] = 0.5 mg/kg, 14/18 days, Female NHP
[6] = 0.5 mg/kg, 14/18 days, Male NHP
[7] = 0.5 mg/kg, 24 hours, Female NHP
[8] = 0.5 mg/kg, Pre-dose, Female NHP

B1: G-CSF: modified mRNA encoding human G-CSF, SEQ ID NO: 4, Cap1, fully modified with 5-methylcytosine and pseudouridine; LNP-formulated in Examples 16-22 (nucleic acid)
chain: GGGAAAUAAGAGAGAAAAGAAGAGUAAGAAGAAAUAUAAGAGCCACCAUGGCCGGUCCCGCGACCCAAAGCCCCAUGAAACUUAUGGCCCUGCAGUUGCUGCUUUGGCACUCGGCCCUCUGGACAGUCCAAGAAGCGACUCCUCUCGGACCUGCCUCAUCGUUGCCGCAGUCAUUCCUUUUGAAGUGUCUGGAGCAGGUGCGAAAGAUUCAGGGCGAUGGAGCCGCACUCCAAGAGAAGCUCUGCGCGACAUACAAACUUUGCCAUCCCGAGGAGCUCGUACUGCUCGGGCACAGCUUGGGGAUUCCCUGGGCUCCUCUCUCGUCCUGUCCGUCGCAGGCUUUGCAGUUGGCAGGGUGCCUUUCCCAGCUCCACUCCGGUUUGUUCUUGUAUCAGGGACUGCUGCAAGCCCUUGAGGGAAUCUCGCCAGAAUUGGGCCCGACGCUGGACACGUUGCAGCUCGACGUGGCGGAUUUCGCAACAACCAUCUGGCAGCAGAUGGAGGAACUGGGGAUGGCACCCGCGCUGCAGCCCACGCAGGGGGCAAUGCCGGCCUUUGCGUCCGCGUUUCAGCGCAGGGCGGGUGGAGUCCUCGUAGCGAGCCACCUUCAAUCAUUUUUGGAAGUCUCGUACCGGGUGCUGAGACAUCUUGCGCAGCCGUGAAGCGCUGCCUUCUGCGGGGCUUGCCUUCUGGCCAUGCCCUUCUUCUCUCCCUUGCACCUGUACCUCUUGGUCUUUGAAUAAAGCCUGAGUAGGAAG
modifications: Cap1, 5-methylcytosine, pseudouridine
B1 was tested, and the “Female NHP HGB” value (0.05 mg/kg IV, Pre-dose) was 129 g/L, the “Female NHP Neutrophils” value (0.05 mg/kg IV, Pre-dose) was 3.05 10^9/L and the “Male NHP HGB” value (0.05 mg/kg IV, Pre-dose) was 137 g/L. The “Male NHP Neutrophils” value (0.05 mg/kg IV, Pre-dose) was 13.74 10^9/L, the HCT [1] was 0.4 L/L and the RBC [1] was 5.26 10^12/L. The HCT [2] was 0.44 L/L, the RBC [2] was 5.43 10^12/L and the HCT [3] was 0.4 L/L. For the same molecule, the RBC [3] was 5.08 10^12/L, the HCT (0.05 mg/kg, 24 hours, Male NHP) was 0.39 L/L and the RBC (0.05 mg/kg, 24 hours, Male NHP) was 4.96 10^12/L. For the same molecule, the HCT (0.05 mg/kg, 3 days, Female NHP) was 0.39 L/L, the RBC (0.05 mg/kg, 3 days, Female NHP) was 5.04 10^12/L and the HCT (0.05 mg/kg, 3 days, Male NHP) was 0.41 L/L. For the same molecule, the RBC (0.05 mg/kg, 3 days, Male NHP) was 5.13 10^12/L, the HCT (0.05 mg/kg, 7 days, Female NHP) was 0.4 L/L and the RBC (0.05 mg/kg, 7 days, Female NHP) was 5.05 10^12/L. For the same molecule, the HCT (0.05 mg/kg, 7 days, Male NHP) was 0.42 L/L, the RBC (0.05 mg/kg, 7 days, Male NHP) was 5.17 10^12/L and the HCT [4] was 0.44 L/L. For the same molecule, the RBC [4] was 5.64 10^12/L, the HCT (0.05 mg/kg, Pre-dose, Male NHP) was 0.44 L/L and the RBC (0.05 mg/kg, Pre-dose, Male NHP) was 5.68 10^12/L. For the same molecule, the “Female NHP HGB” value (0.5 mg/kg IV, 14/18 days) was 113 g/L, the “Female NHP Neutrophils” value (0.5 mg/kg IV, 14/18 days) was 1.98 10^9/L and the “Male NHP HGB” value (0.5 mg/kg IV, 14/18 days) was 98 g/L. For the same molecule, the “Male NHP Neutrophils” value (0.5 mg/kg IV, 14/18 days) was 2.58 10^9/L, the “Female NHP HGB” value (0.5 mg/kg IV, 24 hours) was 112 g/L and the “Female NHP Neutrophils” value (0.5 mg/kg IV, 24 hours) was 13.96 10^9/L. The “Male NHP HGB” value (0.5 mg/kg IV, 24 hours) was 113 g/L, the “Male NHP Neutrophils” value (0.5 mg/kg IV, 24 hours) was 14.92 10^9/L and the “Female NHP HGB” value (0.5 mg/kg IV, 3 days) was 114 g/L. The “Female NHP Neutrophils” value (0.5 mg/kg IV, 3 days) was 13.7 10^9/L, the “Male NHP HGB” value (0.5 mg/kg IV, 3 days) was 118 g/L and the “Male NHP Neutrophils” value (0.5 mg/kg IV, 3 days) was 9.76 10^9/L. The “Female NHP HGB” value (0.5 mg/kg IV, 7 days) was 116 g/L, the “Female NHP Neutrophils” value (0.5 mg/kg IV, 7 days) was 3.81 10^9/L and the “Male NHP HGB” value (0.5 mg/kg IV, 7 days) was 115 g/L. For the same molecule, the “Male NHP Neutrophils” value (0.5 mg/kg IV, 7 days) was 2.74 10^9/L, the “Female NHP HGB” value (0.5 mg/kg IV, Pre-dose) was 129 g/L and the “Female NHP Neutrophils” value (0.5 mg/kg IV, Pre-dose) was 1.27 10^9/L. For the same molecule, the “Male NHP HGB” value (0.5 mg/kg IV, Pre-dose) was 133 g/L, the “Male NHP Neutrophils” value (0.5 mg/kg IV, Pre-dose) was 1.53 10^9/L and the HCT [5] was 0.37 L/L. The RBC [5] was 4.92 10^12/L, the HCT [6] was 0.34 L/L and the RBC [6] was 4.21 10^12/L. The HCT [7] was 0.38 L/L, the RBC [7] was 4.96 10^12/L and the HCT (0.5 mg/kg, 24 hours, Male NHP) was 0.37 L/L. The RBC (0.5 mg/kg, 24 hours, Male NHP) was 4.66 10^12/L, the HCT (0.5 mg/kg, 3 days, Female NHP) was 0.38 L/L and the RBC (0.5 mg/kg, 3 days, Female NHP) was 4.97 10^12/L. For the same molecule, the HCT (0.5 mg/kg, 3 days, Male NHP) was 0.39 L/L, the RBC (0.5 mg/kg, 3 days, Male NHP) was 4.91 10^12/L and the HCT (0.5 mg/kg, 7 days, Female NHP) was 0.38 L/L. For the same molecule, the RBC (0.5 mg/kg, 7 days, Female NHP) was 5.04 10^12/L, the HCT (0.5 mg/kg, 7 days, Male NHP) was 0.39 L/L and the RBC (0.5 mg/kg, 7 days, Male NHP) was 4.8 10^12/L. The HCT [8] was 0.43 L/L, the RBC [8] was 5.57 10^12/L and the HCT (0.5 mg/kg, Pre-dose, Male NHP) was 0.46 L/L. The RBC (0.5 mg/kg, Pre-dose, Male NHP) was 5.57 10^12/L and the “neutrophils relative to pre-dose levels” value (all dose groups) was “increase in neutrophils”.
